B1: chr1_185 oligo 1 (dsDNA)
DNA 1: TCCCAGGACTATGAGTTTAGAGAGAAAAAAAACTAAAGTTACAGTAGCTTCATGTTG
DNA 2: CAACATGAAGCTACTGTAACTTTAGTTTTTTTTCTCTCTAAACTCATAGTCCTGGGA
B2: chr1_185 oligo 2 (dsDNA)
DNA 1: AGAGAGAAAAAAAACTAAAGTTACAGTAGCTTCATGTTGTAGATGGGTATATACCGCT
DNA 2: AGCGGTATATACCCATCTACAACATGAAGCTACTGTAACTTTAGTTTTTTTTCTCTCT
B3: chr1_158 oligo 1 (dsDNA)
DNA 1: CGTCTGCTCTCTGTAGGAAGTGCTCCATGGACAGTAGCTTCTGCCTTTCCTT
DNA 2: AAGGAAAGGCAGAAGCTACTGTCCATGGAGCACTTCCTACAGAGAGCAGACG

target: PRDM9Dom2 (Mus musculus domesticus (B6 allele), UniProt Q96EQ9 513-843); test: competition; 20x unlabeled vs labeled CAST DNA; EMSA as in Billings et al. 2013 (buffer, pH, temperature not given); unlabeled competitor dsDNA at 20x labeled DNA; conditions: protein: recombinant; blunt
Sequence (Q96EQ9 513-843): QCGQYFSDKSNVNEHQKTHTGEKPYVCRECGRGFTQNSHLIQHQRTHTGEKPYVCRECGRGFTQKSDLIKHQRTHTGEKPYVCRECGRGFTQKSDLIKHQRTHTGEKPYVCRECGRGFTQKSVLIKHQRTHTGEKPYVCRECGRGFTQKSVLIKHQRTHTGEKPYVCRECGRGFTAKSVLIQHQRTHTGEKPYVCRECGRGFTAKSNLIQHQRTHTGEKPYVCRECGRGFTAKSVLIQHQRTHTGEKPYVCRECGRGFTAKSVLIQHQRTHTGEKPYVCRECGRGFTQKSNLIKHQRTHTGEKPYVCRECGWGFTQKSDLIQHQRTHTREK

Binding result, binds:
B1, B2, B3

— publication PMC4287450, “PRDM9 Drives Evolutionary Erosion of Hotspots in Mus musculus through Haplotype-Specific Initiation of Meiotic Recombination”
